Assays:
[1] = biological target: T1, Pyk1 (Streptomyces coelicolor, UniProt Q9S2I9); test: pyruvate kinase activity assay, purified enzyme, Hill or Michaelis-Menten fit; format: biochemical; settings: activator; PEP and ADP concentrations not told; read-out: No AMP / Pyk1
T1 construct: E. coli codon-optimized gene; E. coli Origami B host
T1 sequence (Q9S2I9 1-478): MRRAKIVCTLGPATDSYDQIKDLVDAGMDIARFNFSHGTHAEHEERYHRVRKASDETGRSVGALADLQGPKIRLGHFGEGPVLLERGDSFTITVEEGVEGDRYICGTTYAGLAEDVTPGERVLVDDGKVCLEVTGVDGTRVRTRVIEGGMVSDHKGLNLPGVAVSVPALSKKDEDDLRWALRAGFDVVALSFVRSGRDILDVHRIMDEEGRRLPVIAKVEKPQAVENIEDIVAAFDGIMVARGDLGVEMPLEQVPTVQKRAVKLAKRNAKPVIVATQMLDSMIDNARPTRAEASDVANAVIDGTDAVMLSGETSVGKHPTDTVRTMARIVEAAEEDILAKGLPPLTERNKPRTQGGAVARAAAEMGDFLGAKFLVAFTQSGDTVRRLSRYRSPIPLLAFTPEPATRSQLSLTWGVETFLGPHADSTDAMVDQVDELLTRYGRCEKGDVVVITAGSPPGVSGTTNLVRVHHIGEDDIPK
Source text: pyruvate kinase activity assay, purified enzyme, Hill or Michaelis-Menten fit on Pyk1

[2] = biological target: T2, Pyk2 (Streptomyces coelicolor, UniProt Q9L299); test: as above; format: biochemical; settings: activator; PEP and ADP concentrations not told; read-out: No AMP / Pyk2
T2 construct: native gene; E. coli Rosetta host
T2 sequence (Q9L299 1-476): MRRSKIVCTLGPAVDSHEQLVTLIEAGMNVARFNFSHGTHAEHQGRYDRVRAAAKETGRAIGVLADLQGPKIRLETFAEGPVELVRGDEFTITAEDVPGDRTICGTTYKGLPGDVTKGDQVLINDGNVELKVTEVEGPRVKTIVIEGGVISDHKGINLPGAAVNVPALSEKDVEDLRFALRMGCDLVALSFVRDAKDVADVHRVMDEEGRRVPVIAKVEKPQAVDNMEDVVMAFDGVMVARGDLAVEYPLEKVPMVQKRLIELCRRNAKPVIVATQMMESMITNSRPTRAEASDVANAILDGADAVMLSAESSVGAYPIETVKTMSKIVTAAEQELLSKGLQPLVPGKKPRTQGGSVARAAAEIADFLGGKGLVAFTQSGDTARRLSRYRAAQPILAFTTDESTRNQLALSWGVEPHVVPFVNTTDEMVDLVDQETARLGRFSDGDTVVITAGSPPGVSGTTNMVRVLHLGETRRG
Source text: pyruvate kinase activity assay, purified enzyme, Hill or Michaelis-Menten fit on Pyk2

[3] = biological target: T1, Pyk1; test: pyruvate kinase activity assay, purified enzyme; format: biochemical; settings: activator
[4] = substrate: Nc1ncnc2c1ncn2[C@@H]1O[C@H](COP(=O)(O)OP(=O)(O)O)[C@@H](O)[C@H]1O; test: pyruvate kinase activity assay, purified enzyme, Michaelis-Menten fit; format: biochemical, Streptomyces coelicolor; settings: 5 mM PEP; no AMP; Michaelis-Menten-type kinetics
Source text: pyruvate kinase activity assay, purified enzyme, Michaelis-Menten fit on Pyk1

[5] = substrate: C=C(OP(=O)(O)O)C(=O)O; test: pyruvate kinase activity assay, purified enzyme, Hill fit; format: biochemical, Streptomyces coelicolor; settings: 1.5 mM ADP; no AMP; cooperative, Hill coefficient 3.7
Source text: pyruvate kinase activity assay, purified enzyme, Hill fit on Pyk1

[6] = substrate: C=C(OP(=O)(O)O)C(=O)O; test: as above; format: biochemical, Streptomyces coelicolor; settings: 1.5 mM ADP; no AMP; cooperative, Hill coefficient 1.5
Source text: pyruvate kinase activity assay, purified enzyme, Hill fit on Pyk2

[7] = substrate: Nc1ncnc2c1ncn2[C@@H]1O[C@H](COP(=O)(O)OP(=O)(O)O)[C@@H](O)[C@H]1O; test: pyruvate kinase activity assay, purified enzyme, Michaelis-Menten fit; format: biochemical, Streptomyces coelicolor; settings: 5 mM PEP; no AMP; Michaelis-Menten-type kinetics; remark: listed apart in the source
Source text: pyruvate kinase activity assay, purified enzyme, Michaelis-Menten fit on Pyk2

Molecule: Nc1ncnc2c1ncn2[C@@H]1O[C@H](COP(=O)(O)O)[C@@H](O)[C@H]1O [AMP]
- EC50 [1]: 10 µM
- EC50 [2]: 3800 µM

Molecule: O=P(O)(O)OC[C@H]1OC(O)[C@H](O)[C@@H]1O (stereo partly shown) [ribose-5-phosphate]
- pyruvate kinase activity assay, purified enzyme [3]: Pyk1 was also shown to be highly stimulated by ribose-5-phosphate

B1: Pyk1 (Streptomyces coelicolor A3(2)) (protein)
chain: MRRAKIVCTLGPATDSYDQIKDLVDAGMDIARFNFSHGTHAEHEERYHRVRKASDETGRSVGALADLQGPKIRLGHFGEGPVLLERGDSFTITVEEGVEGDRYICGTTYAGLAEDVTPGERVLVDDGKVCLEVTGVDGTRVRTRVIEGGMVSDHKGLNLPGVAVSVPALSKKDEDDLRWALRAGFDVVALSFVRSGRDILDVHRIMDEEGRRLPVIAKVEKPQAVENIEDIVAAFDGIMVARGDLGVEMPLEQVPTVQKRAVKLAKRNAKPVIVATQMLDSMIDNARPTRAEASDVANAVIDGTDAVMLSGETSVGKHPTDTVRTMARIVEAAEEDILAKGLPPLTERNKPRTQGGAVARAAAEMGDFLGAKFLVAFTQSGDTVRRLSRYRSPIPLLAFTPEPATRSQLSLTWGVETFLGPHADSTDAMVDQVDELLTRYGRCEKGDVVVITAGSPPGVSGTTNLVRVHHIGEDDIPK
notes: E. coli codon-optimized gene; E. coli Origami B host
- K0.5 [4]: 0.6 mM
- kcat/Km [4]: 1.59e+06 M⁻¹ s⁻¹
- K0.5 [5]: 3.5 mM
- Vmax [5]: 14.1 µmol/min/mg
- kcat [5]: 350 s⁻¹
- kcat/Km [5]: 100000 M⁻¹ s⁻¹

B2: Pyk2 (Streptomyces coelicolor A3(2)) (protein)
chain: MRRSKIVCTLGPAVDSHEQLVTLIEAGMNVARFNFSHGTHAEHQGRYDRVRAAAKETGRAIGVLADLQGPKIRLETFAEGPVELVRGDEFTITAEDVPGDRTICGTTYKGLPGDVTKGDQVLINDGNVELKVTEVEGPRVKTIVIEGGVISDHKGINLPGAAVNVPALSEKDVEDLRFALRMGCDLVALSFVRDAKDVADVHRVMDEEGRRVPVIAKVEKPQAVDNMEDVVMAFDGVMVARGDLAVEYPLEKVPMVQKRLIELCRRNAKPVIVATQMMESMITNSRPTRAEASDVANAILDGADAVMLSAESSVGAYPIETVKTMSKIVTAAEQELLSKGLQPLVPGKKPRTQGGSVARAAAEIADFLGGKGLVAFTQSGDTARRLSRYRAAQPILAFTTDESTRNQLALSWGVEPHVVPFVNTTDEMVDLVDQETARLGRFSDGDTVVITAGSPPGVSGTTNMVRVLHLGETRRG
notes: native gene; E. coli Rosetta host
- K0.5 [6]: 1.3 mM
- kcat/Km [6]: 14000 M⁻¹ s⁻¹
- K0.5 [7]: 0.3 mM
- kcat/Km [7]: 145000 M⁻¹ s⁻¹

— PMC5801464, “Expanding Primary Metabolism Helps Generate the Metabolic Robustness To Facilitate Antibiotic Biosynthesis in Streptomyces” (mBio, 2018)
